Substrate: NC(=O)CC[C@H](N)C(=O)O
Experiment: cells, lysate or membranes
Settings: standard assay: 0.4 mM oxaloacetate, pyridoxal phosphate, 150 mM sodium borate pH 8.5, 37 °C, enzyme not fully purified

B1: recombinant Arabidopsis GTK (Gln transaminase K) (Arabidopsis thaliana) (protein)
chain: MYLDINGVMIKQFSFKASLLPFSSNFRQSSAKIHRPIGATMTTVSTQNESTQKPVQVAKRLEKFKTTIFTQMSILAVKHGAINLGQGFPNFDGPDFVKEAAIQAIKDGKNQYARGYGIPQLNSAIAARFREDTGLVVDPEKEVTVTSGCTEAIAAAMLGLINPGDEVILFAPFYDSYEATLSMAGAKVKGITLRPPDFSIPLEELKAAVTNKTRAILMNTPHNPTGKMFTREELETIASLCIENDVLVFSDEVYDKLAFEMDHISIASLPGMYERTVTMNSLGKTFSLTGWKIGWAIAPPHLTWGVRQAHSYLTFATSTPAQWAAVAALKAPESYFKELKRDYNVKKETLVKGLKEVGFTVFPSSGTYFVVADHTPFGMENDVAFCEYLIEEVGVVAIPTSVFYLNPEEGKNLVRFAFCKDEETLRGAIERMKQKLKRKV
Km: 300 µM
